Experiment [1] deals with T1, wild-type mouse PD-L1 mCherry (full-length mouse PD-L1 with C-terminal mCherry, on HEK 293 cells) (mouse, UniProt Q9EP73 19-290).
T1 construct: whole, on cells; also called wild type PD-L1; mPD-L1 mCherry; not shown: C-terminal mCherry (Clontech N1 mCherry vector)
The experiment in a line: FACS competition: mPD-1 mIgG2a titrated (0.01-250 nM dimer) against 5 nM mB7-1 hIgG1 (competitor) on HEK 293 cells expressing mPD-L1 mCherry; one-site competition fit, three experiments. An excerpt: A mB7-1 hIgG1 Fc fusion construct was cloned which used the same erythropoietin (EPO) leader, mB7-1 ecto domain boundaries and linker sequence as the original mIgG2a construct described above. This construct was transiently expressed in HEK 293 cells and purified as described above for the other Fc fusion proteins used. For the completion experiment, HEK 293 suspension cells were transiently transfected with wild-type mPD-L1 mCherry. Three days post transfection transfected cells were counted and diluted to 1×10⁶ cells/mL. B7-1 hIgG1 fusion protein was added to 100,000 transfected cells at a final concentration of 5 nM dimer, in either the absence or presence of increasing concentrations of PD-1 mIgG2a protein (0.01-250 nM dimer). Parallel experiments were carried out in which purified mIgG2a isotype control was titrated at equivalent molar concentrations. Protein binding was carried out at 22° C. shaking at 900 rpm on a 96-well plate shaker for 1 hour. […] Cells were subsequently washed two more times with 1×PBS with 0.2% BSA. […] Competition data was normalized to 5 nM B7-1 binding in the absence of mPD-1 and plotted as a function of log [mPD-1]. Average data from three independent experiments was fit using a one-site competition model equation Y=min+(max−min)/(1+10^{x-log EC50}).
A) Cartoon depiction of the competition assay. […]

The target in experiment [2] is T2, PD-L1 mutant G119R (mouse PD-L1-mCherry fusion) (mouse, UniProt Q9EP73 19-290).
T2 construct: whole, on cells; not shown: C-terminal mCherry (Clontech N1 mCherry vector)
Briefly: microbead FACS binding assay: protein A microbeads loaded with Fc fusion, HEK 293 cells displaying the PD-L1-mCherry mutant. How it is done:
(§1) PD-L1 mCherry mutant constructs were transiently transfected into HEK 293S cells and subsequently challenged with protein A microbeads (Milltenyi) pre-saturated with a 4:1 mixture of PD-1 Fc-fusion and FITC-Fc protein. A total Fc protein to bead ratio of 5 ug/10 uL microbeads was utilized on the basis of a previous report from Genentech (16). The FITC-Fc served to make the otherwise non-fluorescent microbeads show green fluorescence. For each titration experiment, 500 μL of protein A microbeads were loaded with a mixture of 10 μg fluorescein isothiocyanate (FITC)-Fc and 40 μg of either PD-1-Fc or B7-1-Fc protein in a total volume of 5 mL 1× phosphate buffered saline (PBS). The beads were incubated overnight (˜16 hours) at 4° C. Loaded beads were stored for up to two weeks prior to use. Initial experiments determined that 75 μL of the loaded beads were sufficient to saturate 150,000 cells transfected with wild type PD-L1, (transfection efficiency being consistently 60-70%). For titration experiments, sets of wild type and mutant PD-L1 constructs were transfected in 24-well tissue culture plates containing 1 mL of suspension HEK-293 cells. Three days post transfection cells were counted, diluted to 1×10⁶ cell/mL with 1×PBS with 2% BSA. 150K cells (150 μL) were transferred to Eppendorf tubes, and 75 μL of loaded microbeads added along with an additional 100 μL 1×PBS with 2% bovine serum albumin (BSA). Reactions were mixed end over end for 1 hour at 4° C., 4′,6-diamidino-2-phenylindole (DAPI) was added and samples were immediately analyzed by flow cytometry on a BD Aria III cytometer. Data were analyzed by gating first for live cells (DAPI negative) then for mCherry positive cells (PD-L1 expression). The percentage of mCherry positive cells that were FITC positive (microbeads bound) was used as “percent bound”. For each experiment, the percent bound was normalized to wild type binding.
(§2) These cells were probed by flow cytometry for their ability to bind either FITC-loaded microbeads decorated with wild type PD-1 Ig-fusion or wild type B7-1 Ig-fusion proteins (FIG. 7B).

In experiment [3] the target is T3, PD-L1 mutant I116R (mouse PD-L1-mCherry fusion) (mouse, UniProt Q9EP73 19-290).
T3 construct: whole, on cells; not shown: C-terminal mCherry (Clontech N1 mCherry vector)
The description is as above. How it is done: as §1, §2

For experiment [4], the target named is T4, PD-L1 mutant G120R (mouse PD-L1-mCherry fusion) (mouse, UniProt Q9EP73 19-290).
T4 construct: whole, on cells; not shown: C-terminal mCherry (Clontech N1 mCherry vector)
The description is as above. The protocol:
as §1, §2

Experiment [5] has as its target T5, PD-L1 mutant A121R (mouse PD-L1-mCherry fusion) (mouse, UniProt Q9EP73 19-290).
T5 construct: whole, on cells; not shown: C-terminal mCherry (Clontech N1 mCherry vector)
The description is as above. The protocol: as §1, §2

Experiment [6] addresses T6, PD-L1 mutant L53R (mouse PD-L1-mCherry fusion) (mouse, UniProt Q9EP73 19-290).
T6 construct: whole, on cells; not shown: C-terminal mCherry (Clontech N1 mCherry vector)
Described as above. The protocol:
as §1, §2

Experiment [7] addresses T7, PD-L1 mutant L53D (mouse PD-L1-mCherry fusion) (mouse, UniProt Q9EP73 19-290).
T7 construct: whole, on cells; not shown: C-terminal mCherry (Clontech N1 mCherry vector)
The experiment is described as above. The protocol: as §1, §2

Experiment [8] addresses T8, PD-L1 mutant D122R (mouse PD-L1-mCherry fusion) (mouse, UniProt Q9EP73 19-290).
T8 construct: whole, on cells; not shown: C-terminal mCherry (Clontech N1 mCherry vector)
The experiment is described as above. How it is done:
as §1, §2

Experiment [9] addresses T9, PD-L1 mutant G120A (mouse PD-L1-mCherry fusion) (mouse, UniProt Q9EP73 19-290).
T9 construct: whole, on cells; not shown: C-terminal mCherry (Clontech N1 mCherry vector)
The experiment is described as above. The protocol: as §1, §2

The target of experiment [10] is T10, PD-L1 mutant A121D (mouse PD-L1-mCherry fusion) (mouse, UniProt Q9EP73 19-290).
T10 construct: whole, on cells; not shown: C-terminal mCherry (Clontech N1 mCherry vector)
Described as above. How it is done: as §1, §2

Experiment [11] deals with T11, PD-L1 mutant I115D (mouse PD-L1-mCherry fusion) (mouse, UniProt Q9EP73 19-290).
T11 construct: whole, on cells; not shown: C-terminal mCherry (Clontech N1 mCherry vector)
The description is as above. The protocol:
as §1, §2

Experiment [12] has as its target T12, PD-L1 mutant K124D (mouse PD-L1-mCherry fusion) (mouse, UniProt Q9EP73 19-290).
T12 construct: whole, on cells; not shown: C-terminal mCherry (Clontech N1 mCherry vector)
The description is as above. The protocol: as §1, §2

For experiment [13], the target named is T13, PD-L1 mutant D122A (mouse PD-L1-mCherry fusion) (mouse, UniProt Q9EP73 19-290).
T13 construct: whole, on cells; not shown: C-terminal mCherry (Clontech N1 mCherry vector)
Described as above. How it is done: as §1, §2

The target of experiment [14] is T14, PD-L1 mutant R125D (mouse PD-L1-mCherry fusion) (mouse, UniProt Q9EP73 19-290).
T14 construct: whole, on cells; not shown: C-terminal mCherry (Clontech N1 mCherry vector)
The description is as above. How it is done:
as §1, §2

Experiment [15] concerns the target T15, PD-L1 mutant R125A (mouse PD-L1-mCherry fusion) (mouse, UniProt Q9EP73 19-290).
T15 construct: whole, on cells; not shown: C-terminal mCherry (Clontech N1 mCherry vector)
The experiment is described as above. The protocol:
as §1, §2

Experiment [16] has as its target T16, PD-L1 mutant Y123R (mouse PD-L1-mCherry fusion) (mouse, UniProt Q9EP73 19-290).
T16 construct: whole, on cells; not shown: C-terminal mCherry (Clontech N1 mCherry vector)
The description is as above. The protocol: as §1, §2

Experiment [17] deals with T17, PD-L1 mutant K124A (mouse PD-L1-mCherry fusion) (mouse, UniProt Q9EP73 19-290).
T17 construct: whole, on cells; not shown: C-terminal mCherry (Clontech N1 mCherry vector)
The experiment is described as above. The protocol:
as §1, §2

In experiment [18] the target is T18, PD-L1 mutant Y123A (mouse PD-L1-mCherry fusion) (mouse, UniProt Q9EP73 19-290).
T18 construct: whole, on cells; not shown: C-terminal mCherry (Clontech N1 mCherry vector)
The experiment is described as above. How it is done: as §1, §2

Experiment [19] has as its target T1, wild-type mouse PD-L1 mCherry …. Briefly: cell microarray challenged with Fc fusion protein.

T6 sequence (Q9EP73 19-290 L53R): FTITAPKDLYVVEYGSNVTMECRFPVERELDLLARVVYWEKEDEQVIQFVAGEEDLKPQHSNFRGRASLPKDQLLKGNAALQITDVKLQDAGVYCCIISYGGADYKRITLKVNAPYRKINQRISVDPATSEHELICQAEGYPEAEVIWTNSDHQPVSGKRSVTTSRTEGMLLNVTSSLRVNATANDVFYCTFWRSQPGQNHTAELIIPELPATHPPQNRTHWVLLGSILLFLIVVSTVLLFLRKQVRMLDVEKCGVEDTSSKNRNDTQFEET
T10 sequence (Q9EP73 19-290 A121D): as the sequence (Q9EP73 19-290 L53R) above, with R35L, A103D counted along it
T4 sequence (Q9EP73 19-290 G120R): as the sequence (Q9EP73 19-290 L53R) above, with R35L, G102R counted along it
T2 sequence (Q9EP73 19-290 G119R): as the sequence (Q9EP73 19-290 L53R) above, with R35L, G101R counted along it
T3 sequence (Q9EP73 19-290 I116R): as the sequence (Q9EP73 19-290 L53R) above, with R35L, I98R counted along it
T5 sequence (Q9EP73 19-290 A121R): as the sequence (Q9EP73 19-290 L53R) above, with R35L, A103R counted along it
T11 sequence (Q9EP73 19-290 I115D): as the sequence (Q9EP73 19-290 L53R) above, with R35L, I97D counted along it
T8 sequence (Q9EP73 19-290 D122R): as the sequence (Q9EP73 19-290 L53R) above, with R35L, D104R counted along it
T1 sequence (Q9EP73 19-290): as the sequence (Q9EP73 19-290 L53R) above, with R35L counted along it
T9 sequence (Q9EP73 19-290 G120A): as the sequence (Q9EP73 19-290 L53R) above, with R35L, G102A counted along it
T7 sequence (Q9EP73 19-290 L53D): as the sequence (Q9EP73 19-290 L53R) above, with R35D counted along it
T13 sequence (Q9EP73 19-290 D122A): as the sequence (Q9EP73 19-290 L53R) above, with R35L, D104A counted along it
T18 sequence (Q9EP73 19-290 Y123A): as the sequence (Q9EP73 19-290 L53R) above, with R35L, Y105A counted along it
T14 sequence (Q9EP73 19-290 R125D): as the sequence (Q9EP73 19-290 L53R) above, with R35L, R107D counted along it
T15 sequence (Q9EP73 19-290 R125A): as the sequence (Q9EP73 19-290 L53R) above, with R35L, R107A counted along it
T12 sequence (Q9EP73 19-290 K124D): as the sequence (Q9EP73 19-290 L53R) above, with R35L, K106D counted along it
T16 sequence (Q9EP73 19-290 Y123R): as the sequence (Q9EP73 19-290 L53R) above, with R35L, Y105R counted along it
T17 sequence (Q9EP73 19-290 K124A): as the sequence (Q9EP73 19-290 L53R) above, with R35L, K106A counted along it

B1: wild-type mPD-1 Fc (residues L25-Q167, mIgG2a-10×His) (Fc fusion, mouse, not shown: a dimerising Fc or GST)
chain (part 1 of 2): LEVPNGPWRSLTFYPAWLTVSEGANATFTCSLSNWSEDLMLNWNRLSPSNQTEKQAAFCNGLSQPVQDARFQIIQLPNRHDFHMNILDTRRNDSGIYLCGAISLHPKAKIEESPGAELVVTERILETSTRYPSPSPKPEGRFQ
chain (part 2 of 2): HHHHHHHHHH
notes: range 25-167; In the microbead assay it was loaded on protein A microbeads; also called PD-1 Fc-fusion; PD-1 Ig-fusion
For the molecule B1, in experiment [1], the response was half-maximal at 8.3 nM (EC50). Besides, the binding result in [2], in [3], in experiment [4], in [5], in [6] and in experiment [7] was “no binding” throughout. Moreover, the binding result in experiment [8], in [9], in experiment [10] and in [11] was “no binding” each time.

B2: wild-type mB7-1 Fc (residues D37-K245, mIgG2a-10×His) (Fc fusion)
chain: DVDEQLSKSVKDKVLLPCRYNSPHEDESEDRIYWQKHDKVVLSVIAGKLKVWPEYKNRTLYDNTTYSLIILGLVLSDRGTYSCVVQKKERGTYEVKHLALVKLSIKADFSTPNITESGNPSADTKRITCFASGGFPKPRFSWLENGRELPGINTTISQDPESELYTISSQLDFNTTRNHTIKCLIKYGDAHVSEDFTWEKPPEDPPDSK
modifications: C-terminal mIgG2a Fc-10×His (dimerising carrier), not in the letters
notes: In the microbead assay it was loaded on protein A microbeads; also called B7-1 Fc-fusion; B7-1 Ig-fusion; not shown: the linker between ectodomain and Fc, the mouse IgG2a Fc and the 10xHis tag behind it
Take B2: the binding result is given as “binds” in [12]; “no binding” in [2]; “binds” in experiment [13]; “no binding” in [3]; “binds” in [14]; “no binding” in experiment [4]. The binding result is on record as “binds” in [15]; “no binding” in experiment [5]; “no binding” in experiment [6]; “no binding” in experiment [7]; “binds” in experiment [16]; “no binding” in [8]. The binding result was “no binding” in experiment [9]; “no binding” in experiment [10]; “binds” in experiment [17]; “no binding” in experiment [11]; “binds” in [18]; “binds” in experiment [19].

The values are drawn from patent publication US20190153065A1 (ALBERT EINSTEIN COLLEGE OF MEDICINE, published 2019).
